± gives the standard deviation of the averaged measurements.
B1: library; a variant is named by its letters at N, in order (parent)
chain: GCUGUCACCGGUGUAUUACCCUAGUGGUCGACCGGUCUGAUGAGUCUNNNNNNAGACGAAACAGC

Assays:
hypoxanthine [1] = variants of: B1; experiment: normalized RNA/DNA level with ligand (relative to sTRSVctl = 100) (log10 (% of sTRSVctl)); ligand: hypoxanthine (xanthine aptamer); higher = less ribozyme self-cleavage, higher mRNA level; conditions: ligand concentration (+) RNA-Seq: 5 mM, HEK293T, reporter: mCherry (pCS4076), ligand present: yes
Summary of the method: (§1)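 Ribozyme switch library plasmids linked to reporters were introduced into HEK293T cells at 4 µg per 6-well well, with ligand, if any, added 1 h before. Total RNA was extracted with EDTA 72 h later, reverse-transcribed, amplified, barcoded and sequenced. RNA level was computed from RNA over DNA reads relative to a spiked-in non-cleaving sequence or the top sequences, then scaled and log-transformed. The top set was 25 sequences, values were ×100 and log10, and the cutoff was ≥100 DNA reads.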

hypoxanthine [2] = variants of: B1; experiment: normalized RNA/DNA level without ligand (relative to sTRSVctl = 100) (log10 (% of sTRSVctl)); ligand: hypoxanthine (xanthine aptamer); higher = less ribozyme self-cleavage, higher mRNA level; conditions: HEK293T, reporter: mCherry (pCS4076), ligand present: no
Summary of the method: as §1

Variant	normalized RNA/DNA level with ligand (log10) (hypoxanthine [1])	normalized RNA/DNA level without ligand (log10) (hypoxanthine [2])
GCUGUCACCGGUGUAUUACCCUAGUGGUCGACCGGUCUGAUGAGUCUUAGAGCAGACGAAACAGC	1.908 ± 0.017	1.706 ± 0.0082
GCUGUCACCGGUGUAUUACCCUAGUGGUCGACCGGUCUGAUGAGUCUGAGAUUAGACGAAACAGC	1.92 ± 0.041	1.82 ± 0.03
GCUGUCACCGGUGUAUUACCCUAGUGGUCGACCGGUCUGAUGAGUCUCAGACUAGACGAAACAGC	1.92 ± 0.043	1.92 ± 0.022
GCUGUCACCGGUGUAUUACCCUAGUGGUCGACCGGUCUGAUGAGUCUCAGACGAGACGAAACAGC	1.98 ± 0.035	1.8 ± 0.081
GCUGUCACCGGUGUAUUACCCUAGUGGUCGACCGGUCUGAUGAGUCUCAGACCAGACGAAACAGC	2.04 ± 0.037	1.96 ± 0.045
GCUGUCACCGGUGUAUUACCCUAGUGGUCGACCGGUCUGAUGAGUCUCAGCACAGACGAAACAGC	1.94 ± 0.035	1.81 ± 0.034
GCUGUCACCGGUGUAUUACCCUAGUGGUCGACCGGUCUGAUGAGUCUCAGCAGAGACGAAACAGC	1.89 ± 0.019	1.68 ± 0.11
GCUGUCACCGGUGUAUUACCCUAGUGGUCGACCGGUCUGAUGAGUCUCAGCAAAGACGAAACAGC	1.885 ± 0.01	1.637 ± 0.014
GCUGUCACCGGUGUAUUACCCUAGUGGUCGACCGGUCUGAUGAGUCUUAGCCAAGACGAAACAGC	1.93 ± 0.032	1.91 ± 0.082
GCUGUCACCGGUGUAUUACCCUAGUGGUCGACCGGUCUGAUGAGUCUUAGCCCAGACGAAACAGC	1.956 ± 0.018	1.885 ± 0.0052
GCUGUCACCGGUGUAUUACCCUAGUGGUCGACCGGUCUGAUGAGUCUGAGACCAGACGAAACAGC	1.96 ± 0.048	1.82 ± 0.017
GCUGUCACCGGUGUAUUACCCUAGUGGUCGACCGGUCUGAUGAGUCUCAGCCCAGACGAAACAGC	2.03 ± 0.052	1.94 ± 0.023
GCUGUCACCGGUGUAUUACCCUAGUGGUCGACCGGUCUGAUGAGUCUCAGCCAAGACGAAACAGC	1.9708 ± 0.0019	1.78 ± 0.051
GCUGUCACCGGUGUAUUACCCUAGUGGUCGACCGGUCUGAUGAGUCUGAGAGUAGACGAAACAGC	1.87 ± 0.091	1.49 ± 0.029
GCUGUCACCGGUGUAUUACCCUAGUGGUCGACCGGUCUGAUGAGUCUUACUUGAGACGAAACAGC	1.929 ± 0.0075	1.72 ± 0.064
GCUGUCACCGGUGUAUUACCCUAGUGGUCGACCGGUCUGAUGAGUCUCAGAGUAGACGAAACAGC	1.97 ± 0.035	1.79 ± 0.056
GCUGUCACCGGUGUAUUACCCUAGUGGUCGACCGGUCUGAUGAGUCUCAGAGCAGACGAAACAGC	1.926 ± 0.019	1.74 ± 0.022
GCUGUCACCGGUGUAUUACCCUAGUGGUCGACCGGUCUGAUGAGUCUAAGAACAGACGAAACAGC	1.9 ± 0.032	1.7418 ± 0.00032
GCUGUCACCGGUGUAUUACCCUAGUGGUCGACCGGUCUGAUGAGUCUAAGCACAGACGAAACAGC	1.89 ± 0.027	1.69 ± 0.047
GCUGUCACCGGUGUAUUACCCUAGUGGUCGACCGGUCUGAUGAGUCUAAGCAUAGACGAAACAGC	1.88 ± 0.027	1.705 ± 0.0018
GCUGUCACCGGUGUAUUACCCUAGUGGUCGACCGGUCUGAUGAGUCUUAGAUAAGACGAAACAGC	1.917 ± 0.0088	1.82 ± 0.071
